# Article PMC4077619, “Split luciferase complementation assay to detect regulated protein-protein interactions in rice protoplasts in a large-scale format” (Rice, 2014)
# Biological target: T1, CRLuc-H2B (Arabidopsis HISTONE 2B fused to the C-terminal fragment of Renilla luciferase) (Arabidopsis, UniProt Q9FFC0 1-145)
# T1 construct: Arabidopsis HISTONE 2B (H2B), locus AT5G22880; cDNA inserted in a pDuEx vector; source: rice protoplasts, transformed (PEG) with a pDuEx vector (35S promoter), in cells
# Assay: split reporter (BiFC, NanoBiT); split Renilla luciferase complementation in living rice protoplasts, 96-well plate, W5 buffer, ViviRen substrate, RLU read 16 h after transformation; no hormone added (before the hormone or with W5 buffer only); H2A-H2B also tested with GA3 (Figure S1), RLU not increased
# Conditions: partners not purified
# T1 sequence (Q9FFC0 whole entry, the tested form may be a part): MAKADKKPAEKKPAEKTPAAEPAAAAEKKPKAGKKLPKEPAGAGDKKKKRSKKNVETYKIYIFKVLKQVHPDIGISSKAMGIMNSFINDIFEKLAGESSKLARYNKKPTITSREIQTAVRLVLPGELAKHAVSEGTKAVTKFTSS
binder,measurement,value
"NRLuc-H2A (Arabidopsis HISTONE 2A fused to the N-terminal fragment of Renilla luciferase) (natural protein, Arabidopsis HISTONE 2A (H2A), locus AT4G27230; cDNA inserted in a pDuEx vector; source: rice protoplasts, transformed (PEG) with a pDuEx vector (35S promoter), in cells) not shown",fold RLU over a non-interaction protein pair,10 fold
same,fold RLU over mock transformed protoplasts,21 fold
